Source: patent US20180244787A1 (Sanofi, published 2018)

T1: recombinant human CXCR3 (human, UniProt P49682 1-368, limits assumed)
T1 construct: also called C-X-C motif chemokine receptor 3
T1 sequence (looked up): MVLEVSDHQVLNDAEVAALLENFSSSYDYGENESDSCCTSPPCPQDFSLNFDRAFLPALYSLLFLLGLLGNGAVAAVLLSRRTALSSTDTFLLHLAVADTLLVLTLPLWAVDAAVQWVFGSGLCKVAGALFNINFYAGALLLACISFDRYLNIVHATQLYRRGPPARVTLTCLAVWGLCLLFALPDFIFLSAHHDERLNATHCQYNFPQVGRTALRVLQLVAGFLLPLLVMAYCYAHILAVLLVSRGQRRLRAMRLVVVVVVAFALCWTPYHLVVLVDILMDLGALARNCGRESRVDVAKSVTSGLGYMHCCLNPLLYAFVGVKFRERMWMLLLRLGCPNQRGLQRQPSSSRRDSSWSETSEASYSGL


Target: T1, recombinant human CXCR3
Assay: binding kinetics; method and antigen not given

Row | Binder | Kd | koff | kon
1 | humanized clone 53 HuAntibody 23 (antibody, V domains shown, humanized anti-human CXCR3 mAb) VH: EVQLLESGGGLVQPGGSLRLSCAASGFTFTSYAMSWVRQAPGKGLEWVAVISHGGTYTYYADSVKGRFTISRDNAKNTLYLQMNSLRAEDTAVYYCARHPIYSGNYQGYFDYWGQGTLVTVSS VL: DIQLTQSPSFLSASVGDRVTITCRASSGVNYLYWYQQKPGKAPKLWIYFTSTLAPGVPSRFSGSGSGNEYTLTISSLQPEDFATYYCQQFTSSPYTFGGGTKLEIK | 0.322 nM | 2.45e-05 s⁻¹ | 75600 M⁻¹ s⁻¹
2 | humanized clone 53 HuAntibody 27 (antibody, V domains shown, humanized anti-human CXCR3 mAb) VH: EVQLLESGGGLVQPGGSLRLSCAASGFTFTSYAMSWVRQAPGKGLEWVATISHGGTYTYYPDSVKGRFTISRDNAKNTLYLQMNSLRAEDTAMYYCARHPIYSGNYQGYFDYWGQGTLVTVSS VL: DIQLTQSPSFLSASVGDRVTITCRASSGVNYLYWYQQKPGKAPKLWIYFTSTLAPGVPSRFSGSGSGNEYTLTISSLQPEDFATYYCQQFTSSPYTFGQGTKLEIK | 0.0737 nM | 8.34e-06 s⁻¹ | 113000 M⁻¹ s⁻¹
3 | humanized clone 53 HuAntibody 29 (antibody, V domains shown, humanized anti-human CXCR3 mAb) VH: EVQLLESGGGLVQPGGSLRLSCAASGFTFTSYAMSWVRQAPGKGLEWVATISHGGTYTYYPDSVKGRFTISRDNAKNTLYLQMNSLRAEDTAVYYCARHPIYSGNYQGYFDYWGQGTLVTVSS VL: DIQLTQSPSFLSASVGDRVTITCRASSGVNYLYWYQQKPGKAPKLWIYFTSTLAPGVPSRFSGSGSGNEYTLTISSLQPEDFATYYCQQFTSSPYTFGQGTKLEIK | 0.303 nM | 3.5e-05 s⁻¹ | 115000 M⁻¹ s⁻¹
4 | humanized clone 53 HuAntibody 30 (antibody, V domains shown, humanized anti-human CXCR3 mAb) VH: EVQLLESGGGLVQPGGSLRLSCAASGFTFTSYAMSWVRQAPGKGLEWVAVISHGGTYTYYADSVKGRFTISRDNAKNTLYLQMNSLRAEDTAVYYCARHPIYSGNYQGYFDYWGQGTLVTVSS VL: DIQLTQSPSFLSASVGDRVTITCRASSGVNYLYWYQQKPGKAPKLWIYFTSTLASGVPSRFSGSGSGNEYTLTISSLQPEDFATYYCQQFTSSPYTFGGGTKLEIK | 1.34 nM | 0.000126 s⁻¹ | 93700 M⁻¹ s⁻¹
5 | humanized clone 53 HuAntibody 34 (antibody, V domains shown, humanized anti-human CXCR3 mAb) VH: EVQLLESGGGLVQPGGSLRLSCAASGFTFTSYAMSWVRQAPGKGLEWVAVISHGGTYTYYADSVKGRFTISRDNAKNTLYLQMNSLRAEDTAVYYCARHPIYSGNYQGYFDYWGQGTLVTVSS VL: DIQLTQSPSFLSASVGDRVTITCRASSGVNYLYWYQQKPGKAPKLWIYFTSTLASGVPSRFSGSGSGNEYTLTISSLQPEDFATYYCQQFTSSPYTFGQGTKLEIK | 1.03 nM | 9.19e-05 s⁻¹ | 88900 M⁻¹ s⁻¹

Second part, the binder after the results:

Row | Kd | koff | kon | Binder
6 | 0.0614 nM | 6.16e-06 s⁻¹ | 101000 M⁻¹ s⁻¹ | humanized clone 53 HuAntibody 24 (antibody, V domains shown, humanized anti-human CXCR3 mAb) VH: EVQLLESGGGLVQPGGSLRLSCAASGFTFTSYAMSWVRQAPGKGLEWVATISHGGTYTYYPDSVKGRFTISRDNAKNTLYLQMNSLRAEDTAMYYCARHPIYSGNYQGYFDYWGQGTLVTVSS VL: DIQLTQSPSFLSASVGDRVTITCRASSGVNYLYWYQQKPGKAPKLWIYFTSTLAPGVPSRFSGSGSGNEYTLTISSLQPEDFATYYCQQFTSSPYTFGGGTKLEIK
7 | 0.623 nM | 6.21e-05 s⁻¹ | 99500 M⁻¹ s⁻¹ | humanized clone 53 HuAntibody 25 (antibody, V domains shown, humanized anti-human CXCR3 mAb) VH: EVQLLESGGGLVQPGGSLRLSCAASGFTFTSYAMSWVRQAPGKGLEWVATISHGGTYTYYPDSVKGRFTISRDNAKNTLYLQMNSLRAEDTAVYYCARHPIYSGNYQGYFDYWGQGTLVTVSS VL: DIQLTQSPSFLSASVGDRVTITCRASSGVNYLYWYQQKPGKAPKLWIYFTSTLAPGVPSRFSGSGSGNEYTLTISSLQPEDFATYYCQQFTSSPYTFGGGTKLEIK
8 | 0.537 nM | 5.46e-05 s⁻¹ | 101000 M⁻¹ s⁻¹ | humanized clone 53 HuAntibody 26 (antibody, V domains shown, humanized anti-human CXCR3 mAb) VH: EVQLLESGGGLVQPGGSLRLSCAASGFTFTSYAMSWVRQAPGKGLEWVAVISHGGTYTYYADSVKGRFTISRDNAKNTLYLQMNSLRAEDTAVYYCARHPIYSGNYQGYFDYWGQGTLVTVSS VL: DIQLTQSPSFLSASVGDRVTITCRASSGVNYLYWYQQKPGKAPKLWIYFTSTLAPGVPSRFSGSGSGNEYTLTISSLQPEDFATYYCQQFTSSPYTFGQGTKLEIK
9 | 0.449 nM | 5e-05 s⁻¹ | 111000 M⁻¹ s⁻¹ | humanized clone 53 HuAntibody 31 (antibody, V domains shown, humanized anti-human CXCR3 mAb) VH: EVQLLESGGGLVQPGGSLRLSCAASGFTFTSYAMSWVRQAPGKGLEWVATISHGGTYTYYPDSVKGRFTISRDNAKNTLYLQMNSLRAEDTAMYYCARHPIYSGNYQGYFDYWGQGTLVTVSS VL: DIQLTQSPSFLSASVGDRVTITCRASSGVNYLYWYQQKPGKAPKLWIYFTSTLASGVPSRFSGSGSGNEYTLTISSLQPEDFATYYCQQFTSSPYTFGGGTKLEIK
10 | 0.656 nM | – | – | humanized clone 53 HuAntibody 33 (antibody, V domains shown, humanized anti-human CXCR3 mAb) VH: EVQLLESGGGLVQPGGSLRLSCAASGFTFTSYAMSWVRQAPGKGLEWVATISHGGTYTYYPDSVKGRFTISRDNAKNTLYLQMNSLRAEDTAVYYCARHPIYSGNYQGYFDYWGQGTLVTVSS VL: DIQLTQSPSFLSASVGDRVTITCRASSGVNYLYWYQQKPGKAPKLWIYFTSTLASGVPSRFSGSGSGNEYTLTISSLQPEDFATYYCQQFTSSPYTFGGGTKLEIK
11 | 0.0456 nM | 4.73e-06 s⁻¹ | 102000 M⁻¹ s⁻¹ | humanized clone 53 HuAntibody 35 (antibody, V domains shown, humanized anti-human CXCR3 mAb) VH: EVQLLESGGGLVQPGGSLRLSCAASGFTFTSYAMSWVRQAPGKGLEWVATISHGGTYTYYPDSVKGRFTISRDNAKNTLYLQMNSLRAEDTAMYYCARHPIYSGNYQGYFDYWGQGTLVTVSS VL: DIQLTQSPSFLSASVGDRVTITCRASSGVNYLYWYQQKPGKAPKLWIYFTSTLASGVPSRFSGSGSGNEYTLTISSLQPEDFATYYCQQFTSSPYTFGQGTKLEIK
